From patent US12529083B2, “CYP76AD1-beta clade polynucleotides, polypeptides, and methods for producing betalains” (YEDA RESEARCH AND DEVELOPMENT CO. LTD., priority 2015, dated 2026) come the findings set out here.

The experiment relates to tyrosine hydroxylation to L-DOPA. Description: Transient expression in N. benthamiana leaves, LC-MS detection of L-DOPA. Type of experiment: in vivo, Nicotiana benthamiana. The following applies: vector or gene infiltrated without BvDODA1, LC-MS. The procedure: In all cases, agrobacteria were grown overnight in LB media and brought to a final O.D.600 0.2 in infiltration buffer. When co-infiltrated, agrobacteria carrying separate constructs were each brought to O.D.600 0.2 and mixed in a 1:1 ratio before infiltration. Tissues used for subsequent LC-MS analysis were sampled from leaves 7 days post infiltration. For LC-MS analysis of L-DOPA and betalains, 3-4 biological replicates for each experiment were sampled, each consisting of infiltrated tissues from 2-3 different leaves. For L-DOPA analysis, samples were extracted as described above and analyzed using a UPLC/PDA-MSMS instrument, where a UPLC separation module (Waters Acquity) was connected to a photodiode array detector (Waters Acquity 2996, 190-800 nm), and (on-line) to a triple quadrupole MS detector (Waters Xevo TQ MS), equipped with an ESI source. […] Samples were analyzed in positive ionization mode, using the following settings: capillary—2 kV, cone—26 eV, with two transitions 198.1>152.1 (collision—15 eV) and 198.1>181.1 (collision—10 eV) used for compound assignment. […]

B1: CYP76AD15: Mirabilis jalapa cytochrome P450, functional ortholog of CYP76AD6, catalyzing formation of L-DOPA from tyrosine (SEQ ID NO: 44) (protein, listed as Mirabilis jalapa)
chain: MENTMLGVILATIFLTFHIMKMLFSPSKVKLPPGPRPLPIIGNILELGDKPHRSFANLAKIHGPLVTLKLGSVTTIVVSSSEVAKEMFLKNDQPLANRTIPDSVRAGNHDKLSMSWLPVSPKWRNLRKISAVQLLSTQRLDASQAHRQAKIKQLIEYVKKCSKIGQYVDIGQVAFTTSLNLLSNTFFSKELASFDSDNAQEFKQLMWCIMEEIGRPNYADYFPILGYVDPFGARRRLSRYFDQLIEVFQVIIRERLTHDNNIVGNNNDVLATLLDLYKQNELTMDEINHLLVDIFDAGTDTTASTLEWAMSELIKNPHIMAKAQEEVRRATMSHGGATVAEIQESDINNLPYIQSIIKETLRLHPPTVFLLPRKADVDVQLFGYVVPKNAQVLVNLWAIGRDPNVWPDPEVFSPERFMDCEIDVKGRDFELLPFGAGRRICPGLSLAYRMLNLMLANMVHSFDWKLPGVENGSGSEMDSLDMDEKFGITLQKVQPLKVIPVSRK
With B1, the L-DOPA production result is “L-DOPA production when infiltrated alone”.
